According to patent publication US20190185531A1 (published 2019):

B1: FS1 (peptide)
peptide: Ac-QWVREIAAGLRLAADNVNAQLER-NH2
B2: Puma BH3 peptide (23 residues) (peptide)
peptide: Ac-QWAREIGAQLRRMADDLNAQYER-NH2
B3: FS2 (peptide)
peptide: Ac-QWVREIAAGLRRAADDVNAQVER-NH2
B4: PUMA/FS2 chimeric peptide: PUMA with smaller residues at positions G2, D3, A4 and E4 (peptide)
peptide: Ac-QWAREIGAGLRRAADDVNAQVER-NH2
B5: PUMA/FS2 chimeric peptide: PUMA with larger residues at positions A2 and E2 (peptide)
peptide: Ac-QWVREIAAQLRRMADDLNAQYER-NH2
B6: FS3 (peptide)
peptide: Ac-QWIREIAAGLRRFADILNAQVER-NH2

Target: T1, human Bfl-1 (c-myc-tagged) (human, UniProt Q16548 1-151)
T1 chain: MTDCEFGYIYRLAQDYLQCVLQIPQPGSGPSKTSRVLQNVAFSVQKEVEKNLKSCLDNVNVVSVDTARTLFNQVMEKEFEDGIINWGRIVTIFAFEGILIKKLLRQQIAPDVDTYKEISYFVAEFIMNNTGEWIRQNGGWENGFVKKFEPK
Experiment: anisotropy

Q: Which Ki does the source give for B1 here?
A: The Ki was 16.4 nM.

Target: T1, human Bfl-1 (c-myc-tagged)
Experiment: fluorescence anisotropy competition

Q: With B2 as the binder, how does the Ki read?
A: The Ki was 4.8 nM.

Q: B3 was tested. Which Ki did it give?
A: The Ki was 21 nM.

Q: B4 was tested. Which Ki did it give?
A: Its Ki is 600 nM.

Q: With B5 as the binder, how does the Ki read?
A: The Ki was 2.1 nM.

Target: T1, human Bfl-1 (c-myc-tagged)
Experiment: fluorescence anisotropy competition
Remark: another data set of the same source

Q: For B2, which Ki is on record?
A: Its Ki is 5.1 nM.

Q: Which Ki does the source give for B3 here?
A: The Ki was 24.8 nM.

Q: With B6 as the binder, how does the Ki read?
A: Its Ki is 2.1 nM.

target: Bcl-2 (c-myc-tagged) (human, UniProt P10415 1-217); experiment: fluorescence anisotropy competition
Sequence (P10415 1-217): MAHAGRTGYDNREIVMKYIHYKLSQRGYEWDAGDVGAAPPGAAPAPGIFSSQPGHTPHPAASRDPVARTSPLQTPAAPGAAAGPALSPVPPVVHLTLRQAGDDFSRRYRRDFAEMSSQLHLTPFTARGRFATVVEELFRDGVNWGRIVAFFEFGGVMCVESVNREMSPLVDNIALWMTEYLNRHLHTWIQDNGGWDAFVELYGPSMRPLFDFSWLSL

Q: With B3 as the binder, how does the Ki read?
A: The Ki was 2450 nM.

Q: How did the Ki turn out when B1 was run?
A: Its Ki is 6940 nM.

Q: How did the Ki turn out when B6 was run?
A: The Ki was 2360 nM.

target: Bcl-xL (c-myc-tagged) (human, UniProt Q07817 1-209); experiment: fluorescence anisotropy competition
Sequence (Q07817 1-209): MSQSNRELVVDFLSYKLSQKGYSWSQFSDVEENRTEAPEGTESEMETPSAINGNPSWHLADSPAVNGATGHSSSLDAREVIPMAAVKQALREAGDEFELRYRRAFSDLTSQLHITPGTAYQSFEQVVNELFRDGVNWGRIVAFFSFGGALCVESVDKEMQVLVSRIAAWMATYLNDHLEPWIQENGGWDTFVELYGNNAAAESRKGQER

Q: How did the Ki turn out when B3 was run?
A: Its Ki is 7340 nM.

Q: With B1 as the binder, how does the Ki read?
A: Its Ki is 2720 nM.

Q: B6 was tested. Which Ki did it give?
A: The Ki was 105 nM.

Target: T2, Bcl-w (c-myc-tagged) (human, UniProt Q92843 1-164)
T2 chain: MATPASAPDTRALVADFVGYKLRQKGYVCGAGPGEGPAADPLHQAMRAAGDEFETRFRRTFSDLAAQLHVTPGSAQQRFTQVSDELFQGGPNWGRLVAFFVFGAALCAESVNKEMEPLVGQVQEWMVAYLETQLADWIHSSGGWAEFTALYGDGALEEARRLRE
Experiment: fluorescence anisotropy competition

Q: With B2 as the binder, how does the Ki read?
A: Its Ki is 6 nM.

Q: For B3, which Ki is on record?
A: The Ki was 7210 nM.

Q: B1 was tested. Which Ki did it give?
A: Its Ki is 8880 nM.

Q: For B6, which Ki is on record?
A: The Ki was 828 nM.

Target: T3, human Mcl-1 (c-myc-tagged) (human, UniProt Q07820 172-327)
T3 chain: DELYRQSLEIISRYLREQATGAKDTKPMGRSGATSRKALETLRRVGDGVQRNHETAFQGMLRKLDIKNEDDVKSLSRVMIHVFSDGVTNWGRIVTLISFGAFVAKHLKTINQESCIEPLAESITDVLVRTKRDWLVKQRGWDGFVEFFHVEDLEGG
Experiment: fluorescence anisotropy competition

Q: How did the Ki turn out when B2 was run?
A: Its Ki is 2.7 nM.

Q: With B3 as the binder, how does the Ki read?
A: The Ki was 2580 nM.

Q: With B1 as the binder, how does the Ki read?
A: The Ki was over 5000 nM.

Q: Which Ki does the source give for B6 here?
A: Its Ki is 711 nM.
